Source: publication PMC2212970
Read-outs that look alike come from different tables or passages of the source.

Key:
Assay in all cases: EMSA
[1] = target: T1, SLPI (secretory leucoprotease inhibitor) (UniProt P03973 26-132)
[2] = target: T1, SLPI (secretory leucoprotease inhibitor); remark: listed apart in the source
NF-kB p65 = NF-kB p65 (UniProt Q04206 1-551)
NF-kB p65, sequence (Q04206 whole entry): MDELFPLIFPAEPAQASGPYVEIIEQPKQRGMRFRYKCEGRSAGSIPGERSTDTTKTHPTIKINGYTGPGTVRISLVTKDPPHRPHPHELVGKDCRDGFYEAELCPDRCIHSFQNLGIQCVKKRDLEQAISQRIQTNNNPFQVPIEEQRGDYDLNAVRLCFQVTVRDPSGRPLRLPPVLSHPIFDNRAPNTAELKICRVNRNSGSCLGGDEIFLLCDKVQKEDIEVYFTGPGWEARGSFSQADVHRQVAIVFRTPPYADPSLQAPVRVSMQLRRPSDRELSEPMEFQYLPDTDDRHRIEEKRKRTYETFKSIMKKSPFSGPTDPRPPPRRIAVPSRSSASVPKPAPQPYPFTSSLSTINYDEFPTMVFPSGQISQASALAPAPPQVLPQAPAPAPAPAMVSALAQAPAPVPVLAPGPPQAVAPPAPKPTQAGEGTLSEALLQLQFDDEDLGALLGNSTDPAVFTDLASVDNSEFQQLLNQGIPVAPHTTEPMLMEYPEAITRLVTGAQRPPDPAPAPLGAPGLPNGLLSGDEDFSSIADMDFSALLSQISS

T1 sequence (P03973 26-132): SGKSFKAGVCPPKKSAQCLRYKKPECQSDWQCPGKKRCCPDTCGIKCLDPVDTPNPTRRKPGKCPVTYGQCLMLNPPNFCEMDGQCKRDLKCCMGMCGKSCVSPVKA

B1: Sp-1 consensus (dsDNA)
DNA 1: ATTCGATCGGGCGGGGCGAG
DNA 2: CTCGCCCCGCCCGATCGAAT
Q: Does B1 bind [1]?
A: Result: no binding

B2: NF-kB consensus WT (dsDNA)
DNA 1: AGTTGAGGGGACTTTCCCAGGC
DNA 2: GCCTGGGAAAGTCCCCTCAACT
Q: Does B2 bind [2]?
A: Result: binds

Q: Does B2 bind (NF-kB p65)?
A: Result: binds

B3: CREB consensus (dsDNA)
DNA 1: AGAGATTGCCTGACGTCAGACAGCTAG
DNA 2: CTAGCTGTCTGACGTCAGGCAATCTCT
Q: Does B3 bind [1]?
A: Result: no binding

B4: AP-1 consensus (dsDNA)
DNA 1: CGCTTGATGAGTCAGCCGGAA
DNA 2: TTCCGGCTGACTCATCAAGCG
Q: Does B4 bind [1]?
A: Result: binds

B5: GATA-1 consensus (dsDNA)
DNA 1: AATTGGACCGTATCTCCC
DNA 2: GGGAGATACGGTCCAATT
Q: Does B5 bind [1]?
A: Result: no binding
